Measured values from patent publication US10323078B2, “Isolated peptides and fragments thereof from fibrinogen for use as drugs, particularly in skin inflammatory diseases” (Universite Paris Descartes, priority 2015, dated 2019).

Key:
[1] = test system: monocytes and fibroblasts; experiment: TNF-α production by cells stimulated with P. acnes, overall statement; assay type: cell-based, human; details: the 3 bacterial tested strains
Protocol: (§1) For experiences of stimulation with P. acnes, cells were incubated with the P. acnes suspension adjusted at the appropriate concentration, pre-treated for 1 h at 37° C. or not with fibrinogen recombinant peptides Fg1 and Fg2 at the concentrations 0.87, 1.75, 3.5 or 7 μM for the desired period of time at 37° C. in 5% CO2.
(§2) Human IL-1ß, IL-8, IL-12, hBD-2, and TNF-α protein concentration was measured in the supernatants of stimulated cells using various ELISA Set kits (Ready-Set-Go kit from eBioscience for acne experiments, and for psoriasis experiments the Duo set IL-8 kit from R&D Systems and the BD-2 Human Development (hBD-2) from Peprotech) according to the manufacturer's instructions. We used serial dilutions of recombinant human IL-1ß, IL-8, IL-12 and TNF-α for standard curve. The optical density was determined at 450 nm at a wavelength correction of 540 nm.
(§3) To assess the efficacy of Fg1 recombinant peptide, the production of O2^∘− and H2O2 by HaCaT cells NHDK, THP-1, MRC5 and HDF stimulated by pretreated P. acnes strains 6919, RON and PIE was measured. The amount of ROS produced was compared to that produced by the stimulated cells with untreated bacteria. Production baseline was obtained by measuring ROS on unstimulated cells. The production of IL-1ß, IL-8, IL-12 and TNF-α was also measured in all conditions cited above. […]

[2] = test system: NHDK cells; experiment: IL-8 production by keratinocytes stimulated by peptidoglycanne (PGN); assay type: cell-based, human; details: NHDK pre-treated 24 h with 1.75 to 7 μM, then PGN 10 μg/ml
Protocol: FIG. 19: Dose-dependent inhibition of IL-8 production by keratinocyte pre-treated by small Fg1-generated peptides and stimulated by peptidoglycanne (PGN). NHDK cell were incubated for 24 h with recombinant peptide Fg1 (light gray bar) and Fg2 (dark gray bar) at concentrations ranging from 1.75 to 7 μM. Measurement of IL-8 production was realized by ELISA as described in Materials and Methods. Controls experiments were done with unstimulated NHDK cell (white bar) and HDF stimulated with PGN at 10 μg/ml (black bar). Data are means±S.D. of three separate experiments. Statistical significance is indicated by * (P<0.05), ** (P<0.01), *** (P<0.001), and **** (P<0.0001), respectively. […]
as §2, with “We used serial dilutions of recombinant human IL-1ß, IL-8, IL-12 and TNF-α for standard curve.” left out
The production of IL-8 was also measured NHDK cells stimulated by LTA, LPS and PGN, in presence or not of Fg1 or Fg2. […]

[3] = test system: keratinocytes and fibroblasts; experiment: IL-8 production by cells stimulated with P. acnes, overall statement; assay type: cell-based, human; details: the 3 bacterial tested strains
Protocol: as §1, §2, §3

[4] = test system: P. acnes RON strain; experiment: Adhesion assay, biotinylated P. acnes binding to fibroblasts (HDF); assay type: cell-based, Propionibacterium acnes; details: bacteria pretreated 0.87 to 7 μM, 1 h at 37° C.
Protocol: The bacterial suspension was adjusted at 600 nm to the desired concentration, pretreated with peptides Fg1 and Fg2 at the final concentration ranging from 0.87 to 7 μM for 1 h at 37° C. and deposited on the previously saturated cells with a solution of PBS SVF 2% for 2 h. After incubation for 1 h at 37° C., unbound bacteria are removed by 3 washes with PBS and fixed bacteria are detected by a streptavidin-peroxidase solution of 0.5 μg/ml for 30 min.
Whole P. acnes bacteria are labelled by biotinylation, pre-treated or not with the peptides and contacted with the various cell lines. After removal of the unfixed bacteria, the adhesion activity was measured spectrophotometrically by using the streptavidin-peroxidase conjugate and a chromogenic substrate.
The ability of P. acnes strains 6919, RON and PIE was tested at 3 concentrations to adhere to various cells lines. It has been shown that the strains of P. acnes tested bound to the three kind of cell lines tested (keratinocytes, monocytes and fibroblast) with a maximum adhesion strength found for keratinocytes (FIG. 11). Knowing that P. acnes is able to recognize fibrinogen, it was used human and bovine whole fibrinogen to compete the interaction between the bacteria and the target cell. […] Then, the ability Fg1 to inhibit the adhesion of bacteria and RON PIE was evaluated on the 3 main types cell. […]

B1: MKRMVSWSFHKLKTMKHLLLLLLCVFLVKSQGVNDNEEGFFSARGHRPLDKKREEAPSLRPAPPPISGGGYRARPAKAAATQKKVERKAPDAGGCLHADPDLGVLC (protein)
chain: MKRMVSWSFHKLKTMKHLLLLLLCVFLVKSQGVNDNEEGFFSARGHRPLDKKREEAPSLRPAPPPISGGGRARPAKAAATQKKVERKAPDAGGCLHADPDLGVLCMKRMVSWSFHKLKTMKHLLLLLLCVFLVKSQGVNDNEEGFFSARGHRPLDKKREEAPSLRPAPPPISGGGYRARPAKAAATQKKVERKAPDAGGCLHADPDLGVLC
modifications: GST fusion; fragment Fg1
notes: fragment of Bß chain of human fibrinogen having 106 amino acids; recombinant GST-fused peptide expressed in E. coli
Decrease of the production of TNF-α [1]: dose-response effect on the decrease of the production of TNF-α
Decrease of IL-8 production by PGN-stimulated cells [2]: significantly decreases production of IL-8
Decrease of the production of IL-8 [3]: dose-response effect on the decrease of the production of IL-8
Inhibition of adhesion of P. acnes RON strain [4]: inhibits the adhesion of RON strain in a dose-dependent manner
